One may read the Kd as the free concentration of one partner at which half of the binding sites on the other are occupied at equilibrium, for simple one-to-one binding. A high value points to a looser complex.

This is an account of results in patent US20230277625A1.

T1: Human IL-18Rα ectodomain (amino acids 19-329), biotinylated (human), Q13478
T1 chain: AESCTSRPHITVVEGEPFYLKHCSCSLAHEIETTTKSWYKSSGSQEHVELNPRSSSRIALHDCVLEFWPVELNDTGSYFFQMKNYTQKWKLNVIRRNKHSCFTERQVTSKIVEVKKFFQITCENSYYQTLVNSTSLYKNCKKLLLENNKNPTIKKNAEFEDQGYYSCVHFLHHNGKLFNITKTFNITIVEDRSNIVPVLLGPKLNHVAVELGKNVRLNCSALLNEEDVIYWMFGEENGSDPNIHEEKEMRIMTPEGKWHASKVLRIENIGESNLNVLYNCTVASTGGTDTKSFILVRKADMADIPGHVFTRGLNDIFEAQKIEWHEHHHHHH

B1: SEQ ID NO: 125 (human D2D IL-18 consensus hD2D-CS3), Q14116 37-193 (ligand)
chain: YFGKLESKLSVIRNLNGQVLFIDQGNRPLFADMESSDCRDNAPRTIFIISFYKDSQPRGLAVTISVKCEKISTLSCENKIISFKEMNPPDNIKDTKSDIIFFLRSVPGHDNKMQFESSSYEGYFLACEKERDLFKLILKKEDELGDRSIMFTVQNED
modifications: here or on the partner: biotin on the AviTag (BirA ligase)
B2: SEQ ID NO: 124 (human D2D IL-18 consensus hD2D-CS2), Q14116 37-193 (ligand)
chain: B1 chain with E34T, L60M
modifications: here or on the partner: biotin on the AviTag (BirA ligase)
B3: SEQ ID NO: 123 (human D2D IL-18 consensus hD2D-CS1), Q14116 37-193 (ligand)
chain: B1 chain with E34T, S35D, F51M, L60M
modifications: here or on the partner: biotin on the AviTag (BirA ligase)

Substitutions are numbered along the chain they refer to. Names and notes keep the numbering of the source.

This assay has as its target T1, Human IL-18Rα ectodomain (amino acids …). Nature of the assay: on-yeast binding isotherm (flow cytometry), drawn summary table, IL18Rα (KD). The settings on record: remark: other sources report otherwise. For orientation: Flow cytometry measures light scatter and fluorescence of single cells or particles in a stream.
B1 gave a Kd of 9.7 µM. The value for B2 was 21 µM. The value for B3 was 0.43 µM.
